What was measured:
[1] = molecular target: T1, PRMT5 (Homo sapiens, UniProt O14744); assay: In vitro methyltransferase assay of E2F-1 proteins; assay type: biochemical; set-up: made in house; host or cells: U2OS cells (transient transfection, anti-Flag immunoprecipitation, elution); conditions: about 1 μg protein, 3H labeled SAM; mutants compared with wild-type E2F-1
Experimental: To assess whether the RGRGR motif was a direct target for PRMT5 methylation, a series of mutant derivatives of E2F-1 were made in which each arginine (R) residue was substituted with a lysine residue (K; FIG. 1a), and the ability of the mutant derivative to be methylated in vitro then assessed. […] In FIG. 1b(i) each of the indicated proteins (about 1 μg) was used in the methylation reaction. In vitro methylated samples were analysed by SDS-PAGE as described below. E2F-1 is indicated. In FIG. 1b(ii) samples in FIG. 1b(i) were counted (3H cpm as indicated). Histones treated with PRMT5 served as the positive control. The data shown provide one example taken from two different experiments.
Flag-PRMT5 plasmid was transfected into U2OS cells for 48 h. Cells were lysed and Flag-PRMT5 was immunoprecipitated with agarose beads and then eluted. The elute was mixed with recombinant substrates (GST fusion proteins or histones) in methylation reaction buffer (50 mM Tris, 0.1 mM EDTA, 50 mM NaCl) with ^3H labeled SAM (as —CH3 group donor) to a volume of 40 μl and incubated at 30° C. for 90 min. Half of the reactions were then spotted onto p81 membrane circles (Whatman) and air dried. The membranes were then washed three times, 5 min each in 50 ml of wash buffer (46 mM NaHCO3, 4 mM Na2CO3, pH 9.2). After washing briefly with acetone, membranes were air dried, placed in scintillation vials, immersed in scintillation fluid (Beckman Coulter) and disintegrations per minute (DPM) measured in a scintillation counter. The other half of the reactions were run on SDS-PAGE gel and used to detect ^3H auto-radioisotope/methylation signal.
Target sequence in this assay (O14744 whole entry): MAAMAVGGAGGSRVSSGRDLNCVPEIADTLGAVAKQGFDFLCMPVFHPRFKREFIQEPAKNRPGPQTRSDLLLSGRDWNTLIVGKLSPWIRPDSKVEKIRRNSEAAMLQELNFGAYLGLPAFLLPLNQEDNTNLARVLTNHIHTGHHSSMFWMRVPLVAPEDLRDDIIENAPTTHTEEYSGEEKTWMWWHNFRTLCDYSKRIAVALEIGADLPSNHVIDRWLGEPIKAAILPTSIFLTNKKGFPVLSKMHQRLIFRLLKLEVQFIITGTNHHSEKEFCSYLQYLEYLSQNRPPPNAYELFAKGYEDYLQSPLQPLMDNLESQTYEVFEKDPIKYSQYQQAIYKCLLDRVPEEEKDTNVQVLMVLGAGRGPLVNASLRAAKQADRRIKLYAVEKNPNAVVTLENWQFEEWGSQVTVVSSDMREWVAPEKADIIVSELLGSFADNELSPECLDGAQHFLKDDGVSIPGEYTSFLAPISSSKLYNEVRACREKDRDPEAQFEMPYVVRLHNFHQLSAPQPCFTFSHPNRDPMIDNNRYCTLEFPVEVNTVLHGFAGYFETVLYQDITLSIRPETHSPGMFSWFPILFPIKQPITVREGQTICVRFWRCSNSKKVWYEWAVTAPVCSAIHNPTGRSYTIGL
Target sequence in this assay (Q9BQA1 whole entry partner): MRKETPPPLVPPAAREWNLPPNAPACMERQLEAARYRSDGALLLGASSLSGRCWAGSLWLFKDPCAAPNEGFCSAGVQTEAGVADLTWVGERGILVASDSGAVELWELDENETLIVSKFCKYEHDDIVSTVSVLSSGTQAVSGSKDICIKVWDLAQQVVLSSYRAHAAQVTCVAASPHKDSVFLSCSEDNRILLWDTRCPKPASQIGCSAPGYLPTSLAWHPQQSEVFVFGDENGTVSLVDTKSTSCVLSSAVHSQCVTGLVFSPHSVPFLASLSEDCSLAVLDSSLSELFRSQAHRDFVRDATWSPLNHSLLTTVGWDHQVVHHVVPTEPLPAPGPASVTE

[2] = molecular target: T1, PRMT5; assay: GST binding assay with U2OS cell lysate, PRMT5 immunoblot; set-up: The indicated GST proteins were incubated with U2OS cell lysate; endogenous in cells; host or cells: U2OS; conditions: GST-E2F-1 proteins incubated with U2OS cell lysate
Experimental: It was then assessed whether E2F-1 could interact with PRMT5 and thereafter the role of each R residue in mediating the interaction. […] The indicated GST proteins were incubated with U2OS cell lysate, and bound proteins immunoblotted using anti-GST (for input GST), DP-1 or PRMT5 antibodies. Binding to DP-1, the major heterodimeric partner for E2F-1 (Stevens and La Thangue 2003), served as a control since it bound equally to each of the E2F-1 proteins.
GST or GST tagged proteins (10 μg each) were incubated with agarose beads and damaged or undamaged U2OS cell lysates for 3 h. Beads were then washed with TNN buffer 3 times. SDS sample buffer was added to beads and samples were analysed by immunoblotting.
Target sequence in this assay (O14744 whole entry): as the sequence (O14744 whole entry) above

[3] = molecular target: T1, PRMT5; assay: Co-immunoprecipitation of ectopic E2F-1 with PRMT5 in U2OS cells; assay type: cell-based; set-up: The indicated GST proteins were incubated with U2OS cell lysate; endogenous in cells; host or cells: U2OS; conditions: expression vector transfected into U2OS cells, HA11 IP
Text: (§1) To establish whether E2F-1 was able to bind to PRMT5 in cells, the interaction between ectopic wild-type E2F-1 or KKK with PRMT5 was studied. […] Either a wild-type E2F-1 expression vector or a KKK expression vector was transfected into U2OS cells, and HA11 antibody was used for immunoprecipitation (IP) followed by immunoblotting with HA11 (E2F-1), PRMT5 or DP-1 as indicated. The level of input (In) protein is indicated. […] In contrast, binding to DP-1 was equivalent for both wild-type E2F-1 and KKK. […] Further, the RGRGR motif is necessary for the interaction, which also encompasses the site of PRMT5 methylation.
(§2) Cells were either left untransfected or transfected with expression vectors as indicated. At 48 h post transfection, cells were harvested in TNN buffer (50 mM Tris-HC1 [pH 7.4], 150 mM NaCl, 5 mM EDTA, 0.5% Ipegal, 50 mM NaF, 0.2 mM sodium orthovanadate and protease inhibitor cocktail (1 mM PMSF, leupeptin [1 μg/ml], aprotinin [1 μg/m1], and pepstatin A [1 μg/ml])) and rotated at 4° C. for 30 min to 1 h. The cell lysate was then homogenised, centrifuged at 11000 rpm for 10 min to remove cell debris and the supernatant collected. All lysates were normalized for protein concentration and, where appropriate, for transfection by β-galactosidase activity. […] Enhanced chemi-luminescence (Pierce Biotechnology, Rockford, Ill.) was used to visualize antibody binding.
Target sequence in this assay (O14744 whole entry): as above

[4] = molecular target: T2, DP-1 (Homo sapiens, UniProt Q14186); assay: Co-immunoprecipitation of ectopic E2F-1 with DP-1 in U2OS cells; assay type: cell-based; conditions: expression vector transfected into U2OS cells, HA11 IP
T2 construct: endogenous in cells; host or cells: U2OS
T2 sequence (Q14186 1-410): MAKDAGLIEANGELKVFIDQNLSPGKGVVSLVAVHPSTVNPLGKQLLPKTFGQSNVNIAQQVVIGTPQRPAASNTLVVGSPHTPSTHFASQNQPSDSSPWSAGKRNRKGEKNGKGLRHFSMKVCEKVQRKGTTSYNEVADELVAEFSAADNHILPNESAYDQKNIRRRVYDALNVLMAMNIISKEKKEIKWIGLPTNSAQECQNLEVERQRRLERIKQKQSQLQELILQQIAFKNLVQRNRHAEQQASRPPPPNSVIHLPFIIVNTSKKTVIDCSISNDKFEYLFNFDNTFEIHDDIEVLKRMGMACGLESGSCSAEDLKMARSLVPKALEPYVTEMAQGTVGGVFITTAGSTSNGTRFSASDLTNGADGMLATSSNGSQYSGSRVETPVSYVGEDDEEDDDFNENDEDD
Text: as §1, §2

[5] = system: U2OS cells; assay: Apoptosis (sub-G1) by FACS in U2OS cells; assay type: cell-based; conditions: U2OS cells, expression vectors 48 h; relative to wild-type E2F-1; n=2
Experimental: Whether arginine methylation influences E2F-1-dependent apoptosis was investigated by comparing the ability of wild-type E2F-1 to the KK and KKK mutants to induce cells with a sub-G1 DNA content (Stevens et al 2003). […] U2OS cells were transfected with expression vectors encoding wild-type E2F-1, KK and KKK as indicated for 48 h and analysed by FACS as described. The graph represents the relative change in sub-G1 populations compared to the empty vector control treatment; n=2.
The graph (i) represents the relative number of sub-G I cells (compared to the control treatment) in the indicated conditions; and (ii) the level of PRMT5 and E2F-1; n=3.
PRMT5 (P) or control (C) non-targeting siRNA (25 nM) was transfected into HCT116 p53+/+ (i), HCT116 p53−/− (ii) or U2OS (iii) cells and the cells were harvested 72 h post-transfection and analysed by FACS. The graph represents the actual number of sub-G1 cells in the indicated conditions, and the immunoblot the level of PRMT5 and actin control; n=3.
PRMT5 (P), E2F-1 (E) or control (C) non-targeting siRNA was transfected into U2OS cells and harvested 72 h post-transfection and analysed by FACS as described.
Cells were transfected with the indicated expression vectors together with pBB14-GFP (for 48 h) to monitor transfection efficiency or siRNA (for 48 h or 72 h) with or without treatment of the DNA damage agent for the last 16 h. Then, cells were fixed and stained with propidium iodide and analyzed by Flow Cytometry.

[6] = system: p73-luciferase or cyclinE-luciferase; assay: Reporter assay with E2F-responsive promoters; assay type: cell-based; conditions: U2OS cells, 48 h, equivalent protein level; compared to wild-type E2F-1; n=3
Experimental: To further explore the role of arginine methylation in the transcription properties of E2F-1, wild-type E2F-1 was compared with the KK and KKK mutants in a reporter-based transfection assay, using E2F-responsive promoters derived from E2F target genes. The assay was performed under conditions in which each mutant protein was expressed at an equivalent level to wild-type E2F-1 (FIG. 4aii and bii), thus ruling out any difference in activity that could be attributed to protein levels. […] FIGS. 4a and b show the transcription properties of wild-type E2F-1, KK and KKK mutants. U2OS cells were transfected with expression vectors encoding WT or mutant E2F-1 protein, together with p73-luciferase (A) or cyclinE-luciferase (B) for 48 h as indicated, and pCMV-βgal to monitor transfection efficiency. Relative luciferase activity (luciferase/βgal) is shown together with expression level of ectopic proteins; n=3. […] PRMT5 (P) or control (C) non-targeting siRNA was transfected into U2OS cells together with p73-luciferase (i) or cyclinE-luciferase (ii) for 48 h, together with pCMV-βgal to monitor transfection efficiency. Relative luciferase activity is shown together with expression level of the ectopic proteins.
Cells were transfected with expression vectors (1 μg) encoding WT or the mutant E2F-1 proteins as indicated with E2F responsive luciferase reporters, namely p73-luciferase or cyclinE-luciferase, together with pCMV-βgal to monitor transfection efficiency. Cells were harvested, lysed 48 h post-transfection and luciferase activity measured as previously described (Janson et al 2008).

Substance | in vitro methylation by PRMT5 [1] | binding to PRMT5 [2] | co-immunoprecipitation with PRMT5 [3] | binding to DP-1 in cells [4] | transcriptional activity (relative luciferase activity) [6] | apoptosis (sub-G1 population) [5]
R113K: mutant E2F-1 with arginine 113 substituted with lysine | greater level of reduction | compromised PRMT5 binding | – | – | – | –
KK: methylation-defective E2F-1 protein containing the mutations R111K and R113K | could not be methylated by PRMT5 | completely devoid of PRMT5 binding | – | – | increased transcriptional activity | increased levels of apoptosis
R109K: mutant E2F-1 with arginine 109 substituted with lysine | reduced methylation | significant PRMT5 binding activity | – | – | – | –

Now from value to substance, other results behind:

in vitro methylation by PRMT5 [1] | binding to PRMT5 [2] | co-immunoprecipitation with PRMT5 [3] | binding to DP-1 in cells [4] | transcriptional activity (relative luciferase activity) [6] | Substance | apoptosis (sub-G1 population) [5]
could be methylated in vitro | bound to PRMT5 | co-immunoprecipitated with PRMT5 | equivalent | – | wild-type E2F-1: E2F-1 protein, SEQ ID NO:3, used as GST fusion or HA-tagged expression vector | –
greater level of reduction | compromised PRMT5 binding | – | – | – | R111K: mutant E2F-1 with arginine 111 substituted with lysine | –
